The supplement of paper PMC7125110
± gives the standard error. For part of these data: Fewer inactive variants are shown than the library holds.

B1: glmS ribozyme (parent)
chain: AUAAAAGCGCCAGAACUACAGAAAUGUAGUUGACGAGGAGGAGGUUUAUCGAAUUUUCGGCGGAUGCCUCCAAA

Legend:
Conditions in all cases: with glucosamine-6-phosphate
[1] = variants of: B1; assay: kcat; higher = faster cleavage; RNA array
Outline: (§1)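 Glucosamine-6-phosphate, from 40 μM to 10 mM in HEPES/KCl/Mg(OAc)2 buffer, was flowed over sequenced MiSeq chips carrying barcoded ribozyme variants transcribed in situ by E. coli RNA polymerase. A hybridised Cy3 probe tracked the variants at 37 °C as tiles were imaged over ~14 h. kobs, kcat and KM were obtained by fitting normalised per-tile medians to exponential decays and then applying weighted Michaelis–Menten fits across concentrations.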

[2] = variants of: B1; assay: self-cleavage kobs at 160 uM GlcN6P; higher = faster cleavage; RNA array
Outline: as §1

[3] = variants of: B1; assay: self-cleavage kobs at 10000 uM GlcN6P; higher = faster cleavage; RNA array
Outline: as §1

[4] = variants of: B1; assay: KM; higher = weaker cofactor use; RNA array
Outline: as §1

[5] = variants of: B1; assay: self-cleavage kobs at 40 uM GlcN6P; higher = faster cleavage; RNA array
Outline: as §1

[6] = variants of: B1; assay: self-cleavage kobs at 640 uM GlcN6P; higher = faster cleavage; RNA array
Outline: as §1

[7] = variants of: B1; assay: self-cleavage kobs at 2500 uM GlcN6P; higher = faster cleavage; RNA array
Outline: as §1

Variant	kcat [1]	self-cleavage kobs at 160 uM GlcN6P [2]	self-cleavage kobs at 10000 uM GlcN6P [3]	KM [4]	self-cleavage kobs at 40 uM GlcN6P [5]	self-cleavage kobs at 640 uM GlcN6P [6]	self-cleavage kobs at 2500 uM GlcN6P [7]
G38A C58G	1.16e-05 ± 3.2e-06 s⁻¹	< 1e-05 s⁻¹	< 1e-05 s⁻¹				
A14C U55C	0.00399 ± 0.0011 s⁻¹	0.000312 ± 7.6e-05 s⁻¹	0.00439 ± 0.00076 s⁻¹	1800 ± 660 µM	8.57e-05 ± 1.1e-05 s⁻¹	0.00122 ± 0.00015 s⁻¹	0.00171 ± 0.00035 s⁻¹
A14G G40A G41U G66A	0.000815 ± 0.00014 s⁻¹		0.000645 ± 0.0001 s⁻¹	2850 ± 980 µM		0.000149 ± 3.6e-05 s⁻¹	0.000356 ± 9.3e-05 s⁻¹
U47G U65G	0.00249 ± 0.00033 s⁻¹	0.000153 ± 2e-05 s⁻¹	0.0021 ± 0.00028 s⁻¹	2760 ± 530 µM	3.08e-05 ± 1.1e-05 s⁻¹	0.000451 ± 7e-05 s⁻¹	0.00107 ± 0.00015 s⁻¹
A14G A42C	3.47e-05 ± 2.4e-06 s⁻¹		2.99e-05 ± 1e-05 s⁻¹	1730 ± 410 µM			1.97e-05 ± 9.6e-06 s⁻¹
U31G G62U C71G	< 1e-05 s⁻¹						
U49A C68A	1.25e-05 ± 6e-06 s⁻¹		< 1e-05 s⁻¹		< 1e-05 s⁻¹		
A15C G41C	3.33e-05 ± 2.9e-06 s⁻¹		2.79e-05 ± 1.2e-05 s⁻¹	1850 ± 570 µM			
A48G C61U	3e-05 ± 9.3e-06 s⁻¹				< 1e-05 s⁻¹		
C50G A52G	2.65e-05 ± 7.5e-06 s⁻¹	3.58e-05 ± 1.7e-05 s⁻¹					3.29e-05 ± 1.4e-05 s⁻¹
G43A	9.3e-05 ± 6.9e-06 s⁻¹		7.88e-05 ± 1.4e-06 s⁻¹	1560 ± 420 µM		2.21e-05 ± 1.7e-06 s⁻¹	6.37e-05 ± 1.8e-06 s⁻¹
G44A G66U	2.15e-05 ± 1.4e-06 s⁻¹			2150 ± 520 µM			
G59U G66U	< 1e-05 s⁻¹		< 1e-05 s⁻¹		< 1e-05 s⁻¹		
C10A C58G	1.34e-05 ± 2.4e-06 s⁻¹						
A14U C16G	0.000881 ± 0.00019 s⁻¹	5.83e-05 ± 1.7e-05 s⁻¹	0.000865 ± 0.00015 s⁻¹	1840 ± 670 µM		0.000263 ± 3.3e-05 s⁻¹	0.000429 ± 6.7e-05 s⁻¹
C16G C58U	3.48e-05 ± 3.2e-06 s⁻¹		3.22e-05 ± 5.6e-06 s⁻¹		< 1e-05 s⁻¹		3.89e-05 ± 9.2e-06 s⁻¹
A53G U55G	0.0437 ± 0.021 s⁻¹	0.00323 ± 0.0008 s⁻¹	0.0622 ± 0.015 s⁻¹		0.0007 ± 8.8e-05 s⁻¹	0.00936 ± 0.0021 s⁻¹	0.0152 ± 0.0045 s⁻¹
A53G U55C	0.0183 ± 0.0057 s⁻¹	0.00157 ± 0.00027 s⁻¹	0.0167 ± 0.0032 s⁻¹	1230 ± 510 µM	0.000669 ± 7.9e-05 s⁻¹	0.00872 ± 0.0013 s⁻¹	0.0106 ± 0.0024 s⁻¹

Variant	kcat [1]	self-cleavage kobs at 160 uM GlcN6P [2]	self-cleavage kobs at 10000 uM GlcN6P [3]	KM [4]	self-cleavage kobs at 40 uM GlcN6P [5]	self-cleavage kobs at 640 uM GlcN6P [6]	self-cleavage kobs at 2500 uM GlcN6P [7]
C34G G60U	< 1e-05 s⁻¹				< 1e-05 s⁻¹		< 1e-05 s⁻¹
U47C C67U	0.000295 ± 6.9e-05 s⁻¹	6.7e-05 ± 2.4e-05 s⁻¹	0.000358 ± 6e-05 s⁻¹			0.000131 ± 3.2e-05 s⁻¹	0.000177 ± 3.5e-05 s⁻¹
A33U G66U	1.11e-05 ± 1.2e-06 s⁻¹	< 1e-05 s⁻¹					
G29A G66U	0.000177 ± 5.1e-05 s⁻¹		0.00015 ± 1.9e-05 s⁻¹			6.51e-05 ± 2e-05 s⁻¹	6.95e-05 ± 1.9e-05 s⁻¹
G41A A42G	0.000223 ± 4.2e-05 s⁻¹		0.000192 ± 1.8e-05 s⁻¹			8.45e-05 ± 1.3e-05 s⁻¹	0.000296 ± 4.3e-05 s⁻¹
G13C A15G	0.000223 ± 1.1e-05 s⁻¹		0.000176 ± 2.8e-05 s⁻¹	2950 ± 270 µM		4.12e-05 ± 8e-06 s⁻¹	9.91e-05 ± 1.3e-05 s⁻¹
A6U U30A	3.27e-05 ± 4.2e-06 s⁻¹	< 1e-05 s⁻¹	2.86e-05 ± 1e-05 s⁻¹		< 1e-05 s⁻¹		
G44U U55A	0.000317 ± 4.2e-05 s⁻¹		0.000273 ± 3.2e-05 s⁻¹	891 ± 390 µM		0.000157 ± 4e-05 s⁻¹	0.000288 ± 4.6e-05 s⁻¹
G62C U69C	< 1e-05 s⁻¹				< 1e-05 s⁻¹	< 1e-05 s⁻¹	
U49G C70U	0.001 ± 4.7e-05 s⁻¹	7.37e-05 ± 1.3e-05 s⁻¹	0.000837 ± 7.5e-05 s⁻¹	1860 ± 160 µM	2.78e-05 ± 1.2e-05 s⁻¹	0.000263 ± 3e-05 s⁻¹	0.00059 ± 7.5e-05 s⁻¹
G13A G66A	0.000323 ± 2.9e-05 s⁻¹		0.000241 ± 4.7e-05 s⁻¹	3550 ± 700 µM			0.000129 ± 3.2e-05 s⁻¹
C11A A14U	9.91e-05 ± 4.5e-06 s⁻¹		9.18e-05 ± 8.6e-06 s⁻¹	947 ± 180 µM		4.4e-05 ± 1e-05 s⁻¹	6.89e-05 ± 9.1e-06 s⁻¹
A36G U55C	1.01e-05 ± 4e-06 s⁻¹						
A64U C71U	0.000158 ± 5.9e-05 s⁻¹		0.000112 ± 1.6e-05 s⁻¹			3.94e-05 ± 1.3e-05 s⁻¹	3.79e-05 ± 1.6e-05 s⁻¹
A39U U54C	0.0342 ± 0.014 s⁻¹		0.0285 ± 0.0042 s⁻¹		0.000447 ± 5e-05 s⁻¹	0.00436 ± 0.00054 s⁻¹	0.00989 ± 0.0032 s⁻¹
A14U G51U	< 1e-05 s⁻¹		< 1e-05 s⁻¹		< 1e-05 s⁻¹	< 1e-05 s⁻¹	
A15C G44U	4.07e-05 ± 6.1e-06 s⁻¹	< 1e-05 s⁻¹			< 1e-05 s⁻¹		
C11A G59U	0.0133 ± 0.0031 s⁻¹	0.000683 ± 8.7e-05 s⁻¹	0.0105 ± 0.0013 s⁻¹	2310 ± 700 µM	0.000273 ± 2.8e-05 s⁻¹	0.00335 ± 0.00043 s⁻¹	0.00743 ± 0.0012 s⁻¹
